The values below come from patent US5556780A, “CDNAS encoding mouse and rat type-2 angiotensin II receptors and their expression in host cells” (The Board of Trustees for the Leland Stanford Junior …, priority 1993, dated 1996).

Substitutions are numbered along the chain they refer to.

What is called Kd is the constant that tells how readily two partners part at equilibrium.

One assay deals with T1, mouse AT2 receptor (Mus musculus, UniProt P35374).
T1 construct: expressed in transfected cells; host or cells: COS-7
T1 sequence (P35374 1-363): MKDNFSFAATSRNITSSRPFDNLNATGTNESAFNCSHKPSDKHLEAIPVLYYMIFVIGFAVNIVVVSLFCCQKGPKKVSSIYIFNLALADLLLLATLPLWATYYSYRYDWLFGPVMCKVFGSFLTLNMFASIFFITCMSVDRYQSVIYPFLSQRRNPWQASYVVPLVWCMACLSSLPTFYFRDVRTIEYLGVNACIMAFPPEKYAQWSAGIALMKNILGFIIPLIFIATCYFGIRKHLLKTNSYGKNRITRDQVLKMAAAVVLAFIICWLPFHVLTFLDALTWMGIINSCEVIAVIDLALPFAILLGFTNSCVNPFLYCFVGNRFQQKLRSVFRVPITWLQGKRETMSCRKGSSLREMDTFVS
In words: [125I]CGP42112A binding / displacement on membranes of COS-7 cells transfected with mouse AT2 receptor cDNA (MC5). Particulars: 0.2 nM [125I]CGP42112A. From the text: Materials. […] Louis, Mo.). […] Expression in COS-7 Cells and Ligand Binding Assay. […] The transfected cells were harvested and homogenized. The 100,000×g pellet of this homogenate was suspended and used as a membrane fraction.

In a further assay the target is T2, rat AT2 receptor (Rattus norvegicus, UniProt P35351).
T2 construct: pMRAT2, a rat AT2 receptor full-length cDNA cloned into the expression vector pcDNA I; expressed in transfected cells; host or cells: COS-7 (transient)
T2 sequence (P35351 1-363): T1 sequence (P35374 1-363) with R18L, S40A, L88V, G352S
As to the kind of experiment: Radioligand binding / displacement of 125I-CGP42112A on membranes of pMRAT2-transfected COS-7 cells. Conditions: for order of inhibition potency (competition profiles): displacement of 125I-CGP42112A. How it is done: cDNA prepared from size-fractionated (>1 kb) poly(A)^+ RNA (Sprague-Dawley whole rat fetus, 18 days postcoitum) was ligated into an expression vector pcDNAI (Invitrogen), and amplified in 900 pools of 1,000 clones. […] Sequencing of both strands of clone pMRAT2 was done by the dideoxy chain termination method with Sequenase (USB).
2 h after incubation at room temperature, bound and free ligands were separated with GF/C filters (Whatman). […] Each experiment was carried out at least twice in duplicate, and the results shown here represent one experiment.
A general note: In a radioligand displacement assay an active substance lowers the binding of a labelled ligand.

Assay [1] relates to mouse AT1b receptor. In words: Emulsion autoradiography of 125I-[Sar1,Ile8]-Ang II binding to transfected COS-7 cells (positive control). Conditions: 1 uM DuP753; 200 pM radioligand, 2 h, room temperature. Here is the method: cDNA prepared from size-fractionated (>1 kb) poly(A)^+ RNA (Sprague-Dawley whole rat fetus, 18 days postcoitum) was ligated into an expression vector pcDNAI (Invitrogen), and amplified in 900 pools of 1,000 clones. Plasmid DNA prepared from every 8 pools by the alkali lysis method was transfected over 2-3 h using DEAE-dextran/chloroquine into COS-7 cells grown on glass chamber slides (Nunc) (Mathews, L. S. & Vale, W. W. Cell 65, 973-982 (1991)). […] Cells were then washed four times with cold 50 mM Tris-HCl, pH 7.4, fixed with 0.1% glutaraldehyde at 4 C and subjected to emulsion autoradiography (Mathews, L. S. & Vale, W. W. Cell 65, 973-982 (1991)). […] Positive pool (RF904) which gave 20 DuP753-resistant positive cells was divided into subpools and rescreened, and after three rounds of screening a single clone pMRAT2 was isolated. Sequencing of both strands of clone pMRAT2 was done by the dideoxy chain termination method with Sequenase (USB).

Assay [2] concerns cloned AT2 receptor. In words: Intracellular calcium (fura-2) in AT2-transfected COS-7 cells. Conditions: 1 uM Ang II. Type of assay: cell-based, rat. How it is done: (§1) Intracellular IP3 levels were measured using radioreceptor assay (NEN). […] Cell fluorescence was measured with excitation at 340 nm and 380 nm. Ionomycin (10 uM) and EGTA (10 mM) were used for calibration.
A general note: Calcium flux is commonly read through the fluorescence of an indicator in the cells.

Assay [3] deals with cloned AT2 receptor. In words: Intracellular IP3 levels in AT2-transfected COS-7 cells (radioreceptor assay). The format is cell-based, rat. Particulars: 1 uM Ang II, 15 sec, 37 C. How it is done:
as §1

The target of assay [4] is rat AT2 receptor (angiotensin II type 2 receptor), clone pMRAT2 (rat). As to the kind of experiment: radioligand binding with DTT, membranes of COS-7 cells transfected with pMRAT2.
Assay [5] shares this target. As to the kind of experiment: radioligand saturation binding, crude membranes of COS-7 cells transiently transfected with pMRAT2.
Assay [6] shares this target. In words: radioligand saturation binding, crude membranes of S293RAT2 cells (293 cells stably transfected with pMRAT2).
Assay [7] concerns the target mouse AT2 receptor (angiotensin II type 2 receptor), clone MC5 (mouse). As to the kind of experiment: radioligand saturation binding with Scatchard plot, membrane fraction of COS-7 cells transfected with mouse AT2 receptor cDNA.
Assay [8] deals with mouse AT1b receptor (mouse, UniProt P29755). In words: emulsion autoradiography of COS-7 cells transfected with the mouse AT1b receptor clone, 200 pM radioligand.
The target in assay [9] is T3, rat AT2 receptor (angiotensin II type 2 receptor), clone pMRAT2 (rat).
T3 chain: T1 sequence (P35374 1-363) with R18L, S40A, L88V, G352S
As to the kind of experiment: expression cloning: emulsion autoradiography of transfected COS-7 cells, 200 pM radioligand with or without DuP753. Here is the method: cDNA prepared from size-fractionated (>1 kb) poly(A)^+ RNA (Sprague-Dawley whole rat fetus, 18 days postcoitum) was ligated into an expression vector pcDNAI (Invitrogen), and amplified in 900 pools of 1,000 clones. Plasmid DNA prepared from every 8 pools by the alkali lysis method was transfected over 2–3 h using DEAE-dextran/chloroquine into COS-7 cells grown on glass chamber slides (Nunc) (Mathews, L. S. & Vale, W. W. Cell 65, 973–982 (1991)). […] Cells were then washed four times with cold 50 mM Tris-HCl, pH 7.4, fixed with 0.1% glutaraldehyde at 4 C and subjected to emulsion autoradiography (Mathews, L. S. & Vale, W. W. Cell 65, 973–982 (1991)). […] Sequencing of both strands of clone pMRAT2 was done by the dideoxy chain termination method with Sequenase (USB).

For the molecule `CCCCc1nc(Cl)c(CO)n1Cc1ccc(-c2ccccc2-c2nn[nH]n2)cc1` [DuP753], at mouse AT2 receptor (at a concentration up to 10^-5 M), the “competition of [125I]CGP42112A binding” value is “virtually inactive”. The “effect in competition (displacement of 125I-CGP42112A)” value on rat AT2 receptor (150 pM radioligand) is given as “no effect”. Also, in the assay on mouse AT1b receptor [1], the “effect on positive staining (125I-[Sar1,Ile8]-Ang II binding)” value is “completely abolished”.

Take `Cc1cc(Cn2cnc3c2C[C@@H](C(=O)O)N(C(=O)C(c2ccccc2)c2ccccc2)C3)ccc1N(C)C` [PD123319]: the “rank order of competition of [125I]CGP42112A binding” value (shortened to “rank order”) on mouse AT2 receptor is “[Sar^1,Ile^8 ]-Ang II=CGP42112A≥Ang II>PD123319>Ang I”. At rat AT2 receptor (150 pM radioligand), the “order of inhibition potency (competition profiles)” value (from here on “order of inhibition potency”) was “[Sar^1,Ile^8 ]-Ang II=CGP42112A≥Ang II>PD123319^10,15 >Ang I”.

“Ang I: Ang I, purchased from Sigma (DRVYIHPFHL)”: in the assay with mouse AT2 receptor, the “rank order” value is “[Sar^1,Ile^8 ]-Ang II=CGP42112A≥Ang II>PD123319>Ang I”. For the same molecule, in the assay with rat AT2 receptor (150 pM radioligand), the “order of inhibition potency” value is “[Sar^1,Ile^8 ]-Ang II=CGP42112A≥Ang II>PD123319^10,15 >Ang I”.

In the case of “Ang II: Angiotensin II is an octapeptide hormone”, in the assay with cloned AT2 receptor [2], the “increase of intracellular calcium” value is “failed to increase”. Also, the “increase of IP3” value with cloned AT2 receptor [3] is “failed to increase”.

As for “Ang II: Angiotensin II is an octapeptide hormone (DRVYIHPF)”, the “rank order” value in the assay with mouse AT2 receptor is “[Sar^1,Ile^8 ]-Ang II=CGP42112A≥Ang II>PD123319>Ang I”.

Take CGP42112A: the “rank order” value on mouse AT2 receptor is “[Sar^1,Ile^8 ]-Ang II=CGP42112A≥Ang II>PD123319>Ang I”. Moreover, the “order of inhibition potency” value at rat AT2 receptor (150 pM radioligand) is “[Sar^1,Ile^8 ]-Ang II=CGP42112A≥Ang II>PD123319^10,15 >Ang I”. For the same molecule, the “increase of binding affinity by DTT” value at rat AT2 receptor (with DTT) is 50-100%.

For CGP42112A (unlabelled) (ligand), the increase of binding affinity by DTT in [4] was 50 to 100%.

Regarding “[Sar^1,Ile^8 ]-Ang II: a non-selective Ang II receptor antagonist”, the “rank order” value in the assay with mouse AT2 receptor was “[Sar^1,Ile^8 ]-Ang II=CGP42112A≥Ang II>PD123319>Ang I”. For the same molecule, the “order of inhibition potency” value with rat AT2 receptor (150 pM radioligand) was “[Sar^1,Ile^8 ]-Ang II=CGP42112A≥Ang II>PD123319^10,15 >Ang I”.

Turning to [^125 I]CGP42112A (ligand), the figures for the Kd in assay [5], in assay [6] and in assay [7] were 0.17 nM, 0.18 nM and 0.12 nM, respectively.

B1: ^125 I-[Sar^1,Ile^8]-Ang II (peptide)
peptide: GRVYIHPI
modifications: Sar at position 1, Ile at position 8, 125I label, as printed ^125 I-[Sar^1,Ile^8]-Ang II
In the case of B1, the binding result (with mouse AT1b receptor [8]; in [9]) was “binds” each time.
